Laboratory results as given in FireProtDB (doi:10.1016/0022-2836(92)90557-z).

Conditions: Bacillus amyloliquefaciens; pH 6.3; 25 °C; Urea; Fluorescence; MES 1.00 M; NaCl 613 mM; reversible: yes; whole UniProt chain shown

B1: Ribonuclease wild type, P00648 (protein)
chain: MMKMEGIALKKRLSWISVCLLVLVSAAGMLFSTAAKTETSSHKAHTEAQVINTFDGVADYLQTYHKLPDNYITKSEAQALGWVASKGNLADVAPGKSIGGDIFSNREGKLPGKSGRTWREADINYTSGFRNSDRILYSSDWLIYKTTDHYQTFTKIR
denaturant midpoint (higher = more stable): 4.58 M
